What all share (assay): purified protein
Common to all, as to format: biochemical, Citrobacter gillenii
Holding throughout (settings): 1 mM ATP, 1 mM MgCl2, 2 mM KCl, 100 mM HEPES pH 7.0, 25 °C

The subject of data set [1] is NC[C@H]1O[C@H](O[C@H]2[C@H](O)[C@@H](O[C@H]3O[C@H](CO)[C@@H](O)[C@H](N)[C@H]3O)[C@H](N)C[C@@H]2N)[C@H](O)[C@@H](O)[C@@H]1O.
The test system of data set [2] is NC[C@@H]1O[C@H](O[C@H]2[C@@H](O)[C@H](O[C@@H]3[C@@H](O)[C@H](N)C[C@H](N)[C@H]3O[C@H]3O[C@H](CO)[C@@H](O)[C@H](O)[C@H]3N)O[C@@H]2CO)[C@H](N)[C@@H](O)[C@@H]1O.
The test system of data set [3] is NC[C@H]1O[C@H](O[C@H]2[C@H](O[C@@H]3O[C@H](CO)[C@@H](O)[C@H]3O)[C@@H](O)[C@H](N)C[C@@H]2N)[C@H](N)[C@@H](O)[C@@H]1O.

In general, Km refers to the substrate concentration at which the rate is half of its maximum. Broadly, the kcat is the number of substrate molecules converted per active site and unit of time at saturation. The kcat/Km is the turnover number divided by the Michaelis constant. Take APH(3’)-Ie (Citrobacter gillenii): the Km in data set [1] is 20.99 ± 1.84 µM; in data set [2], 7.74 ± 1.44 µM; in data set [3] it was 4.22 ± 0.88 µM. The catalytic constant (kcat) was found to be 1.06 ± 0.05 s⁻¹ in data set [1], 0.86 ± 0.01 s⁻¹ in data set [2] and 1.31 ± 0.09 s⁻¹ in data set [3]. The kcat/Km in data set [1] was 50800 ± 4400 M⁻¹ s⁻¹; in data set [2], 114000 ± 28000 M⁻¹ s⁻¹; in data set [3], 323000 ± 81000 M⁻¹ s⁻¹.

For the origin of these results see publication PMC11320999, “APH(3’)-Ie, an aminoglycoside-modifying enzyme discovered in a rabbit-derived Citrobacter gillenii isolate” (Frontiers in Cellular and Infection Microbiology, 2024).
